Laboratory results: patent US20190315842A1 (DUKE UNIVERSITY, published 2019)
Numbering of substitutions follows the chain as printed. One block for each binder: values may come before it. Where no end group is shown, it is not given here. The star is where a group is joined. Biotin = O=C1N[C@H]2[C@H](CS[C@H]2CCCCC(=O)*)N1

Columns and labels:
ribonucleoprotein (RNP) [1] = test: AtheNA Multi-Lyte ANA, Ab at 6.25 ug/ml;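 also: monoclonal antibodies screened for reactivity against a panel of nuclear autoantigens, with an anti-HIV and an anti-RSV monoclonal antibody serving as controls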
[2] = biological target: systemic lupus erythematosus autoantigen SSA; test: AtheNA Multi-Lyte ANA, Ab at 6.25 ug/ml;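 also: monoclonal antibodies screened for reactivity against a panel of nuclear autoantigens, with an anti-HIV and an anti-RSV monoclonal antibody serving as controls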
Sm (sphingomyelin) [3] = biological target: T1, Sm (sphingomyelin); test: AtheNA Multi-Lyte ANA, Ab at 6.25 ug/ml;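 also: monoclonal antibodies screened for reactivity against a panel of nuclear autoantigens, with an anti-HIV and an anti-RSV monoclonal antibody serving as controls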
T1 construct: in an ANA panel of nuclear antigens Sm is usually the Smith ribonucleoprotein antigen; Kept, but see recheck

[4] = biological target: T2, GPPPPIDNGDITSFP(GGGK-biotin); test: ELISA: biotinylated peptide captured on immobilized Neutravidin, antibody at 0.5 µg/ml, anti-human IgG-HRP/ABTS, OD 405 nm
T2 construct: also called biotinylated 15-mer peptide; biotinylated 19-mer
T2 peptide: GPPPPIDNGDITSFPGGGK(Biotin)

ribonucleoprotein (RNP) [5] = test: AtheNA Multi-Lyte ANA, Ab at 50 ug/ml;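 also: monoclonal antibodies probed against a nuclear autoantigen panel (SSA, SSB, Sm, RNP, Scl-70, Jo-1, dsDNA, CentB, histones), with anti-HIV 4E10 and palivizumab as control antibodies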
[6] = biological target: systemic lupus erythematosus autoantigen SSA; test: AtheNA Multi-Lyte ANA, Ab at 50 ug/ml;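 also: monoclonal antibodies probed against a nuclear autoantigen panel (SSA, SSB, Sm, RNP, Scl-70, Jo-1, dsDNA, CentB, histones), with anti-HIV 4E10 and palivizumab as control antibodies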
Sm (sphingomyelin) [7] = biological target: T1, Sm (sphingomyelin); test: AtheNA Multi-Lyte ANA, Ab at 50 ug/ml;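 also: monoclonal antibodies probed against a nuclear autoantigen panel (SSA, SSB, Sm, RNP, Scl-70, Jo-1, dsDNA, CentB, histones), with anti-HIV 4E10 and palivizumab as control antibodies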
[8] = biological target: T3, 15-mer peptide GPPPPIDNGDITSFP (SEQ ID NO: 114) (human); test: assay and antigen not given; Example 10, epitope mapping on the 15-mer peptide
T3 construct: Immobilized for SPR; also called parent peptide
T3 peptide: GPPPPIDNGDITSFP

ribonucleoprotein (RNP) [9] = test: AtheNA Multi-Lyte ANA, Ab at 12.5 ug/ml;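 also: monoclonal antibodies screened for binding to a panel of nuclear autoantigens (SSA, SSB, Sm, RNP, Scl-70, Jo-1, dsDNA, CentB, histones), with anti-HIV and anti-RSV antibodies as controls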
[10] = biological target: systemic lupus erythematosus autoantigen SSA; test: AtheNA Multi-Lyte ANA, Ab at 12.5 ug/ml;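 also: monoclonal antibodies screened for binding to a panel of nuclear autoantigens (SSA, SSB, Sm, RNP, Scl-70, Jo-1, dsDNA, CentB, histones), with anti-HIV and anti-RSV antibodies as controls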
Sm (sphingomyelin) [11] = biological target: T1, Sm (sphingomyelin); test: AtheNA Multi-Lyte ANA, Ab at 12.5 ug/ml;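 also: monoclonal antibodies screened for binding to a panel of nuclear autoantigens (SSA, SSB, Sm, RNP, Scl-70, Jo-1, dsDNA, CentB, histones), with anti-HIV and anti-RSV antibodies as controls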
[12] = biological target: T4, Complement Factor H (CFH) protein, full-length (human, UniProt P08603 19-1231); test: immunoblot, SDS-PAGE under non-reducing conditions, antibody at 0.5 µg/ml, anti-human IgG-HRP, chemiluminescence; lane numbers as in Table 10
T4 construct: also called full-length CFH; native CFH
T4 sequence (P08603 19-1231 limits assumed): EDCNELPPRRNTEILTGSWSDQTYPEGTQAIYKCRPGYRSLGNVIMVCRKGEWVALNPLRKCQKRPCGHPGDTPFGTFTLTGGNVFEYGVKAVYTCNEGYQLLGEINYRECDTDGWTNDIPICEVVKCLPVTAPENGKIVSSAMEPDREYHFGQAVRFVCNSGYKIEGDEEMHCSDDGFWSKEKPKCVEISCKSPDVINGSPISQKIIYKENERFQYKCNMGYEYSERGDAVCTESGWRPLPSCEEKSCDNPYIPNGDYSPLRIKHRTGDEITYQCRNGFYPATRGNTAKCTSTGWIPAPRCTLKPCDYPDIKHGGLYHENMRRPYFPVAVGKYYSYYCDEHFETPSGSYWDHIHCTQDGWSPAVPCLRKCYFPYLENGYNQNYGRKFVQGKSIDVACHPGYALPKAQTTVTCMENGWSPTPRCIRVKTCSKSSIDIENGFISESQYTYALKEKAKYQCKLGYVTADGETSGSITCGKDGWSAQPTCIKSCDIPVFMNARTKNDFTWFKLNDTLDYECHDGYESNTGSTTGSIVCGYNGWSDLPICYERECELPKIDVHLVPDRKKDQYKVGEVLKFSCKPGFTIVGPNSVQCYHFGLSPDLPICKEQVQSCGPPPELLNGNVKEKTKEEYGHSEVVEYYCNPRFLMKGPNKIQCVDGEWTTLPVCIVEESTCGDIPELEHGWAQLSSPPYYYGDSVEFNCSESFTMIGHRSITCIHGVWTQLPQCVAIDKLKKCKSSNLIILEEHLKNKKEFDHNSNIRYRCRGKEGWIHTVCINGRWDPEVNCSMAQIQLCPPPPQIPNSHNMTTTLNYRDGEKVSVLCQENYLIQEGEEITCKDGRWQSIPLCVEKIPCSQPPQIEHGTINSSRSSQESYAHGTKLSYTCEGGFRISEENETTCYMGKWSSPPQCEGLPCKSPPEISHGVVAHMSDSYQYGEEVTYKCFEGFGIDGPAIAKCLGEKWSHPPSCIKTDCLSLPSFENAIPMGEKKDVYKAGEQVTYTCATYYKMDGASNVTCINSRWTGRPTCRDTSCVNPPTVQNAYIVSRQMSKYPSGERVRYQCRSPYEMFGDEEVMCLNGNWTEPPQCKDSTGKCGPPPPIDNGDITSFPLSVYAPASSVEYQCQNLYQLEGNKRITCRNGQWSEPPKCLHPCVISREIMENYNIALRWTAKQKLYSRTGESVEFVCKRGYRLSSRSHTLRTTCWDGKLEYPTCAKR

[13] = biological target: T5, sclerosis autoantigen (Scl-70) (UniProt P11387 2-765, limits assumed); test: AtheNA Multi-Lyte ANA, Ab at 6.25 ug/ml;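 also: monoclonal antibodies screened for reactivity against a panel of nuclear autoantigens, with an anti-HIV and an anti-RSV monoclonal antibody serving as controls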
T5 sequence (looked up): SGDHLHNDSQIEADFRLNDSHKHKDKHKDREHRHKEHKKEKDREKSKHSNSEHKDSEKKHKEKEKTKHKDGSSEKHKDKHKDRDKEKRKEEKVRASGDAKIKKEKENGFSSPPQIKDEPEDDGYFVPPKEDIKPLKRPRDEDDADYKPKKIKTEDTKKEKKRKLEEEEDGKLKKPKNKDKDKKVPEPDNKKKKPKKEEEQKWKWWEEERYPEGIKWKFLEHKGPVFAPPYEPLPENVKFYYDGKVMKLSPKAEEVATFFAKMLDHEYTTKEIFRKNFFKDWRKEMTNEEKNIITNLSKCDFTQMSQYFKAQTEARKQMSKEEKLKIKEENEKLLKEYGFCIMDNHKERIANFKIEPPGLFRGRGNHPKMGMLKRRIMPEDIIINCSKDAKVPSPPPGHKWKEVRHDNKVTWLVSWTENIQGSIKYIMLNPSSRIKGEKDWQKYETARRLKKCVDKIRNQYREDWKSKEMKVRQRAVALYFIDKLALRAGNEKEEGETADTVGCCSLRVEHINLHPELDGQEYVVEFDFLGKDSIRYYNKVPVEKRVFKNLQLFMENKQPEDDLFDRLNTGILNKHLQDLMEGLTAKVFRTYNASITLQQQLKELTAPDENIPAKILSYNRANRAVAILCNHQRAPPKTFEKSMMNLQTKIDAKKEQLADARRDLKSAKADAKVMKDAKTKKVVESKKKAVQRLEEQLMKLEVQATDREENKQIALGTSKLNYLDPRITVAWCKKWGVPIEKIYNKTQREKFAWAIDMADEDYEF

[14] = biological target: T6, reduced form of Complement Factor H (CFH), treated with TCEP (human, UniProt P08603 19-1231, disulfides reduced with 10 mM TCEP); test: immunoblot, SDS-PAGE under reducing conditions, antibody at 0.5 µg/ml, anti-human IgG-HRP, chemiluminescence; lane numbers as in Table 10
T6 construct: also called reduced CFH; reduced form of CFH
T6 sequence (P08603 19-1231 limits assumed): as the sequence (P08603 19-1231 limits assumed) above

[15] = biological target: T5, sclerosis autoantigen (Scl-70); test: AtheNA Multi-Lyte ANA, Ab at 50 ug/ml;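 also: monoclonal antibodies probed against a nuclear autoantigen panel (SSA, SSB, Sm, RNP, Scl-70, Jo-1, dsDNA, CentB, histones), with anti-HIV 4E10 and palivizumab as control antibodies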
ribonucleoprotein (RNP) [16] = test: AtheNA Multi-Lyte ANA, Ab at 25 ug/ml
[17] = biological target: systemic lupus erythematosus autoantigen SSA; test: AtheNA Multi-Lyte ANA, Ab at 25 ug/ml
[18] = biological target: T5, sclerosis autoantigen (Scl-70); test: AtheNA Multi-Lyte ANA, Ab at 25 ug/ml
Sm (sphingomyelin) [19] = biological target: T1, Sm (sphingomyelin); test: AtheNA Multi-Lyte ANA, Ab at 25 ug/ml
[20] = biological target: T5, sclerosis autoantigen (Scl-70); test: AtheNA Multi-Lyte ANA, Ab at 12.5 ug/ml;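 also: monoclonal antibodies screened for binding to a panel of nuclear autoantigens (SSA, SSB, Sm, RNP, Scl-70, Jo-1, dsDNA, CentB, histones), with anti-HIV and anti-RSV antibodies as controls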

B2: 7983/6019 (antibody, V domains shown)
VH: EVQLVESGGGVVQPGRSLRLSCAASGFTFNRFGMHWVRQRQVPGKGLEWVAVISYDDNTKYYADSVKGRFTISRDNNKSTLYLQMSSLRVEDTAVYFCAKGSTAAAVLDYWGQGTLVTVSS
VL: DIVMTQSPDSLTLSLGERATINCKSSQSLFYRSNNKSYLAWYQQKPGQPPKLLIYWASVRESGVPDRFTGSGSVTDFTLTISSLRAEDVAVYYCQQYFTTPLTFGGGTKVAIK
notes: also called clone 15; H007983/K006019
binding result [4]: binds

B3: Ab7961/293i (antibody, IgG1, V domains shown)
VH: LVESGGGVVQPGKSLRLSCVASGFTFSSYGMHWVRQAPGKGLEWVAVMSFDGKTKYYADSVKGRFTISRDNPKNTLYLQMNSLRSEDTAVYYCAKGGAAAAVFDSWGQGILLTVSS
VL: MTQSPNSLAVSLGGRATINCKTSQSILYRSNNKNYLAWYQHKSGQPPKLLIYWASTRESGVPDRFSGSGSRTDFTLTISGLQAEDVAVYYCQQYYNPPWTFGQGTKVEIK
notes: Recombinant human antibody with IgG1 heavy chain backbone and kappa light chain constant; they begin at LVESGGG and MTQSP; also called mAb 7961; clone 24
binding result [12]: binds | AtheNA signal (ribonucleoprotein (RNP) [1]): 7 | AtheNA signal [2]: 18 | AtheNA signal [13]: 2 | AtheNA signal (Sm (sphingomyelin) [3]): 4 | binding result [14]: binds | binding result [4]: binds | AtheNA signal (ribonucleoprotein (RNP) [5]): 8 | AtheNA signal [6]: 40 | AtheNA signal [15]: 3 | AtheNA signal (Sm (sphingomyelin) [7]): 6 | AtheNA signal (ribonucleoprotein (RNP) [16]): 8 | AtheNA signal [17]: 31 | AtheNA signal [18]: 3 | AtheNA signal (Sm (sphingomyelin) [19]): 5 | EC50 [8]: 0.0144 µg/mL | AtheNA signal (ribonucleoprotein (RNP) [9]): 6 | AtheNA signal [10]: 24 | AtheNA signal [20]: 3 | AtheNA signal (Sm (sphingomyelin) [11]): 5

B8: 7963/5998 (antibody, V domains shown)
VH: LVESGGGVVPPGKSLRLSCAASGFTFSLYGIHWVRQAPGKGLEWVAVISYDGNTKYYTDSVKGRFTISRDNAKNTIYLQMNSLRLDDTAVYYCAKGAANSATFDFWGRGTMVTVSS
VL: MTQSPDSLTLSLGERATINCRSSRTVLYRSNNKNYLAWYQHKPGQPPKLLMSWASTRETGVPDRFSGSGSGTHFTLTITSLQPEDVAVYYCQQYYSPPWTFGQGTKVEIR
notes: also called clone 5; H007963/K005998
binding result [4]: binds

B9: 7982/6018 (antibody, V domains shown)
VH: B8 VH
VL: B8 VL
notes: also called clone 6; H007982/K006018
binding result [4]: binds

B10: 7971/6005 (antibody, V domains shown)
VH: LVESGGGVVQPGRSLRLSCAASGFTFSRYGMHWVRQAPGKGLEWVAVMSYDGSTKYYADSVKGRFAISRDNPKNTLFLQMNSLRPDDTAVYYCAKGGAAAAVMDVWGKGTTVTVSS
VL: MTQSPDSLTVSLGERATISCKSSQRLLYSSNNKNYLAWYQQKPGQPPKLLMYWASTRESGVPDRFSGSGSGTDFSLTISSLQAEDVAVYYCQQYYNPPWTFGQGTKVEVK
notes: also called clone 14; H007971/K006005
binding result [4]: binds

Now from value to binder:

AtheNA signal (ribonucleoprotein (RNP) [1]): 4 | AtheNA signal [2]: 32 | AtheNA signal (Sm (sphingomyelin) [3]): 5 | binding result [4]: binds | AtheNA signal (ribonucleoprotein (RNP) [5]): 13 | AtheNA signal [6]: 92 | AtheNA signal (Sm (sphingomyelin) [7]): 10 | EC50 [8]: 0.00648 µg/mL | AtheNA signal (ribonucleoprotein (RNP) [9]): 8 | AtheNA signal [10]: 56 | AtheNA signal (Sm (sphingomyelin) [11]): 7
B1: Ab7955 (antibody, V domains shown)
VH: LVESGGGVVRPGRSLRLSCVASGFTFNAYGMHWVRQGPGKGLEWLAVISYEGKTVYYADSVKDRFTISRDNSRNTVSLHLNNLRGEDTAVYYCAKGSASAAVLQHWGQGTLVSVTS
VL: MTQSPGSLAVSLGSRATINCKSSRSLLYRSNNKNYLAWYQQKPGQSPRLLIYWASSRESGVPDRFSGGGSGTSFTLTISSLQAEDVAVYYCQQYFNPPWTFGQGTKVEIK
notes: Recombinant human antibody with IgG1 heavy chain backbone and kappa light chain constant; also called mAb 7955; clone 19

binding result [4]: binds
B4: 7965/6000 (antibody, V domains shown)
VH: B3 VH
VL: B3 VL
notes: also called clone 12; H007965/K006000

binding result [4]: binds
B5: 7967/6002 (antibody, V domains shown)
VH: B3 VH with T25S, S28T, Q108P
VL: B3 VL with T22A, S43A, D63E, S79N
notes: also called clone 8; H007967/K006002

binding result [12]: binds | AtheNA signal (ribonucleoprotein (RNP) [1]): 44 | AtheNA signal [2]: 101 | AtheNA signal (Sm (sphingomyelin) [3]): 47 | binding result [14]: binds | binding result [4]: binds | AtheNA signal (ribonucleoprotein (RNP) [5]): 62 | AtheNA signal [6]: 162 | AtheNA signal (Sm (sphingomyelin) [7]): 137 | AtheNA signal (ribonucleoprotein (RNP) [16]): 56 | AtheNA signal [17]: 168 | AtheNA signal (Sm (sphingomyelin) [19]): 96 | EC50 [8]: 0.0152 µg/mL | AtheNA signal (ribonucleoprotein (RNP) [9]): 51 | AtheNA signal [10]: 132 | AtheNA signal (Sm (sphingomyelin) [11]): 67
B6: Ab7964 (antibody, IgG1, V domains shown)
VH: LVESGGGVVQPGRSLRLSCAASGVTFSRYGMHWVRQAPGKGLEWVAVISYDEKTKYYADSVKGRFTISRDNSKNTLFLHMNRLRYEDTAVYYCAKGASSGAYFDYWGQGTLVTVSS
VL: not shown
notes: Recombinant human antibody with IgG1 heavy chain backbone and kappa light chain constant; they begin at LVESGGG and MTQSP; also called Ab7964/293i; mAb 7964

binding result [4]: binds
B7: 7958/5992 (antibody, V domains shown)
VH: B8 VH
VL: B8 VL
notes: also called clone 4; H007958/K005992
